In US20200317768A1 (published 2020):

T1: cynomolgus monkey FcγRIIa3 extracellular domain with C-terminal His-tag (cynomolgus monkey)
T1 construct: Expressed in FreeStyle 293 cells and purified; also called cyno FcγRIIa3; cynoFcgRIIa3; not shown: C-terminal His-tag
T1 chain: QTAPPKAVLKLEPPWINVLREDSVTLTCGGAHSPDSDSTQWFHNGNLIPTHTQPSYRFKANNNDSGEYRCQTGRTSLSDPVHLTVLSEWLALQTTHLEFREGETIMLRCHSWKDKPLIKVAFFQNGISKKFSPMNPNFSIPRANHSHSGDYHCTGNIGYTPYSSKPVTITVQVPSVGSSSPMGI

T2: cynomolgus monkey FcγRIIIaS extracellular domain with C-terminal His-tag (cynomolgus monkey, UniProt Q8SPW2 21-206 at identity 1.00))
T2 construct: Expressed in FreeStyle 293 cells and purified; also called cyno FcγRIIIaS; cynoFcγRIIIaS; not shown: C-terminal His-tag
T2 chain: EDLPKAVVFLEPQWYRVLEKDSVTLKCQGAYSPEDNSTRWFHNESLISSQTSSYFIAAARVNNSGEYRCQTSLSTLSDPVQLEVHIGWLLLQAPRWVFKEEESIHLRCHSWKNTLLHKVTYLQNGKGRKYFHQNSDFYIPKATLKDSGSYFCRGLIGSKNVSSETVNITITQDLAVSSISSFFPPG

T3: cynomolgus monkey FcγRIIa1 extracellular domain with C-terminal His-tag (cynomolgus monkey)
T3 construct: Expressed in FreeStyle 293 cells and purified; also called cyno FcγRIIa1; cynoFcgRIIa1; not shown: C-terminal His-tag
T3 chain: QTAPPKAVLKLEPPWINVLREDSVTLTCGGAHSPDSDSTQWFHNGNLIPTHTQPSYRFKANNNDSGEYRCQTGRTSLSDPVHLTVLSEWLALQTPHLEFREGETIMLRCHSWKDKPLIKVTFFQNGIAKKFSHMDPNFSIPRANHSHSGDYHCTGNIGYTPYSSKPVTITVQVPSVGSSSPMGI

T4: human FcγRIIb extracellular domain with C-terminal His-tag (human, UniProt P31994 43-217)
T4 construct: Expressed in FreeStyle 293 cells and purified; also called humanFcgRIIb; not shown: C-terminal His-tag
T4 sequence: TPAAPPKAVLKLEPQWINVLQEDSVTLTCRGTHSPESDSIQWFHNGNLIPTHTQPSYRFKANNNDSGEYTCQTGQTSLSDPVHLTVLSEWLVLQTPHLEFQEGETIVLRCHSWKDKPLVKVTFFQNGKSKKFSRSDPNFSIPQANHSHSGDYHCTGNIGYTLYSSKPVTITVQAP

T5: cynomolgus monkey FcγRIIa2 extracellular domain with C-terminal His-tag (cynomolgus monkey)
T5 construct: Expressed in FreeStyle 293 cells and purified; also called cyno FcγRIIa2; cynoFcgRIIa2; not shown: C-terminal His-tag
T5 chain: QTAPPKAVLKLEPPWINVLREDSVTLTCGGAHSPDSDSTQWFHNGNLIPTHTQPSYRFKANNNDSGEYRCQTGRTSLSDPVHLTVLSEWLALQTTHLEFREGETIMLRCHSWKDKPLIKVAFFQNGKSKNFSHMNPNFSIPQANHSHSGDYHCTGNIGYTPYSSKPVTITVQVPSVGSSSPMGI

T6: cynomolgus monkey FcγRIIb extracellular domain with C-terminal His-tag (cynomolgus monkey)
T6 construct: Expressed in FreeStyle 293 cells and purified; also called cyno FcγRIIb; cynoFcγRIIb; not shown: C-terminal His-tag
T6 chain: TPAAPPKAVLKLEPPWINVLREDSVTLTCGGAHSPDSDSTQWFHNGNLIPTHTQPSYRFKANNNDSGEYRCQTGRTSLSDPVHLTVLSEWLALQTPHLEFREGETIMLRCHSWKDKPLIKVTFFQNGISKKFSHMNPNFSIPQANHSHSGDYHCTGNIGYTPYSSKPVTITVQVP

T7: human FcγRIIaH extracellular domain with C-terminal His-tag (human, UniProt P12318 34-217)
T7 construct: Expressed in FreeStyle 293 cells and purified; also called human FcγRIIa (type H); FcgRIIaH; not shown: C-terminal His-tag
T7 sequence: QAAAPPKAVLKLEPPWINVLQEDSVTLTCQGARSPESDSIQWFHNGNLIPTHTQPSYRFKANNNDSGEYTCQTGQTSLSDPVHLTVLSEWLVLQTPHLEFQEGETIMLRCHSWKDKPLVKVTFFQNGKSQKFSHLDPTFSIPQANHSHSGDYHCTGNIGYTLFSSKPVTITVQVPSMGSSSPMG

T8: human FcγRIIaR extracellular domain with C-terminal His-tag (human, UniProt P12318 34-217)
T8 construct: Expressed in FreeStyle 293 cells and purified; also called human FcγRIIa (type R); FcgRIIaR; not shown: C-terminal His-tag
T8 chain: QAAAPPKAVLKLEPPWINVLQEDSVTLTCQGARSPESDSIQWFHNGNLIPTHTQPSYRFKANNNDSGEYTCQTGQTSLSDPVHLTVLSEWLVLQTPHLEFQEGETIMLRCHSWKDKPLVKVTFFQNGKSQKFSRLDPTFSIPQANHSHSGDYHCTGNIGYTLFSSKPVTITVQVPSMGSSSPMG


Columns and labels:
Test in all cases: SPR (Biacore); KD of SG1 divided by KD of the variant for this FcgR;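 note: relative to parent M103205H795-SG1 carrying the SG1 human heavy chain constant region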
[1] = target: T1, cynomolgus monkey FcγRIIa3 …
Experimental: (§1) Regarding such interactions, KD values were calculated using the following 1:1 binding model described in BIACORE® T100 Software Handbook BR1006-48 Edition AE.
(§2) The behavior of interacting molecules according to the 1:1 binding model on BIACORE® can be described by Equation 1: Req=C·R max/(KD+C)+RI, wherein, Req is a plot of steady-state binding levels to analyte concentration. C is concentration, RI is bulk refractive index contribution in the sample, and Rmax is analyte binding capacity of the surface. When this equation is rearranged, KD can be expressed as Equation 2: KD=C·Rmax/(Req−RI)−C. KD can be calculated by substituting the values of Rmax, RI, and C into Equation 1 or Equation 2. From the current measurement conditions, RI=0, C=2 μmol/L can be used.
(§3) The variants were expressed using M103202L889-SK1 as the light chain and their affinity was analyzed.

[2] = target: T2, cynomolgus monkey FcγRIIIaS …
Experimental: as §1, §2, §3

[3] = target: T3, cynomolgus monkey FcγRIIa1 …
Experimental: as §1, §2, §3

[4] = target: T4, human FcγRIIb extracellular domain with …
Experimental: as §1, §2, §3

[5] = target: T9, human FcγRIIIaV extracellular domain with C-terminal His-tag (human, UniProt P08637 17-208)
T9 construct: Expressed in FreeStyle 293 cells and purified; also called FcgRIIIaV; not shown: C-terminal His-tag
Experimental: as §1, §2, §3

[6] = target: T5, cynomolgus monkey FcγRIIa2 …
Experimental: as §1, §2, §3

[7] = target: T6, cynomolgus monkey FcγRIIb extracellular …
Experimental: as §1, §2, §3

[8] = target: T7, human FcγRIIaH extracellular domain …
Experimental: as §1, §2, §3

[9] = target: T8, human FcγRIIaR extracellular domain …
Experimental: as §1, §2, §3

T9 sequence (P08637 17-208 F176V): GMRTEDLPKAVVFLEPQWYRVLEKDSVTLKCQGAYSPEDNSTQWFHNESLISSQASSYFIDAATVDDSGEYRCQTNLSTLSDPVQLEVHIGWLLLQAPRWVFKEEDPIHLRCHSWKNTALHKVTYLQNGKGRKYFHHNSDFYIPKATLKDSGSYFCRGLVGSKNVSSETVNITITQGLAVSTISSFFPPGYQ

Row | Binder | KD fold (SG1 = 1) [1] [fold] | KD fold (SG1 = 1) [2] [fold] | KD fold (SG1 = 1) [3] [fold] | KD fold (SG1 = 1) [4] [fold] | KD fold (SG1 = 1) [5] [fold] | KD fold (SG1 = 1) [6] [fold] | KD fold (SG1 = 1) [7] [fold] | KD fold (SG1 = 1) [8] [fold] | KD fold (SG1 = 1) [9] [fold]
1 | M103205H795-MY205 / M103202L889-SK1 (antibody, human IgG1, kappa, Fc variant of M103205H795-SG1, expressed with M103202L889-SK1 as light chain; also called MS1032LO06-MY205) heavy: QVTLKESGPVLVKPTETLTLTCTVSGIDLSHDDISWVRQAPGKGLEWVGIISYAGSTYYASWAKGRLTISKDTSKNQVVLTMTNMDPVDTATYYCARGVPAYSHGGDLWGQGTLVTVSSASTKGPSVFPLAPSSKSTSGGTAALGCLVKDYFPEPVTVSWNSGALTSGVHTFPAVLQSSGLYSLSSVVTVPSSSLGTQTYICNVNHKPSNTKVDKKVEPKSCDKTHTCPPCPAPELLNGPSVFLFPPKPKDTLMISRTPEVTCVVVDVSDEDPEVKFNWYVDGVEVHNAKTKPREELYNSTYRVVSVLTVLHQDWLNGKEYKCKVSNKALPKPIEKTISKAKGQPREPQVYTLPPSREEMTKNQVSLTCLVKGFYPSDIAVEWESNGQPENNYKTTPPVLDSDGSFFLYSKLTVDKSRWQQGNVFSCSVMHEALHNHYTQKSLSLSP light: DIVMTQSPATLSLSPGERATLSCTSSQSVYHANWLSWFQQKPGQPPKLLIYWASTLAYGVPSRFSGSGSGTDFTLTISSLQPEDAATYYCAGGYGGGRYAFGQGTKVEIKRTVAAPSVFIFPPSDEQLKSGTASVVCLLNNFYPREAKVQWKVDNALQSGNSQESVTEQDSKDSTYSLSSTLTLSKADYEKHKVYACEVTHQGLSSPVTKSFNRGEC | 5.7 | 0.06 | 3.5 | 8 | 0.06 | 4.6 | 7.2 | 1.5 | 0.8
2 | M103205H795-MY208 / M103202L889-SK1 (antibody, human IgG1, kappa, Fc variant of M103205H795-SG1, expressed with M103202L889-SK1 as light chain) heavy: QVTLKESGPVLVKPTETLTLTCTVSGIDLSHDDISWVRQAPGKGLEWVGIISYAGSTYYASWAKGRLTISKDTSKNQVVLTMTNMDPVDTATYYCARGVPAYSHGGDLWGQGTLVTVSSASTKGPSVFPLAPSSKSTSGGTAALGCLVKDYFPEPVTVSWNSGALTSGVHTFPAVLQSSGLYSLSSVVTVPSSSLGTQTYICNVNHKPSNTKVDKKVEPKSCDKTHTCPPCPAPELLNGPSVFLFPPKPKDTLMISRTPEVTCVVVDVSDEDPEVKFNWYVDGVEVHNAKTKPREELYNSTYRVVSVLTVLHQDWLNGKEYKCKVSNKALPAPIEKTISKAKGQPREPQVYTLPPSREEMTKNQVSLTCLVKGFYPSDIAVEWESNGQPENNYKTTPPVLDSDGSFFLYSKLTVDKSRWQQGNVFSCSVMHEALHNHYTQKSLSLSP light: DIVMTQSPATLSLSPGERATLSCTSSQSVYHANWLSWFQQKPGQPPKLLIYWASTLAYGVPSRFSGSGSGTDFTLTISSLQPEDAATYYCAGGYGGGRYAFGQGTKVEIKRTVAAPSVFIFPPSDEQLKSGTASVVCLLNNFYPREAKVQWKVDNALQSGNSQESVTEQDSKDSTYSLSSTLTLSKADYEKHKVYACEVTHQGLSSPVTKSFNRGEC | 2.5 | 0.18 | 2.7 | 4.2 | 0.08 | 5.4 | 2.8 | 0.8 | 0.5
3 | M103205H795-MY206 / M103202L889-SK1 (antibody, human IgG1, kappa, Fc variant of M103205H795-SG1, expressed with M103202L889-SK1 as light chain) heavy: QVTLKESGPVLVKPTETLTLTCTVSGIDLSHDDISWVRQAPGKGLEWVGIISYAGSTYYASWAKGRLTISKDTSKNQVVLTMTNMDPVDTATYYCARGVPAYSHGGDLWGQGTLVTVSSASTKGPSVFPLAPSSKSTSGGTAALGCLVKDYFPEPVTVSWNSGALTSGVHTFPAVLQSSGLYSLSSVVTVPSSSLGTQTYICNVNHKPSNTKVDKKVEPKSCDKTHTCPPCPAPELLNGPVVFLFPPKPKDTLMISRTPEVTCVVVDVSDEDPEVKFNWYVDGVEVHNAKTKPREELYNSTYRVVSVLTVLHQDWLNGKEYKCKVSNKALPKPIEKTISKAKGQPREPQVYTLPPSREEMTKNQVSLTCLVKGFYPSDIAVEWESNGQPENNYKTTPPVLDSDGSFFLYSKLTVDKSRWQQGNVFSCSVMHEALHNHYTQKSLSLSP light: DIVMTQSPATLSLSPGERATLSCTSSQSVYHANWLSWFQQKPGQPPKLLIYWASTLAYGVPSRFSGSGSGTDFTLTISSLQPEDAATYYCAGGYGGGRYAFGQGTKVEIKRTVAAPSVFIFPPSDEQLKSGTASVVCLLNNFYPREAKVQWKVDNALQSGNSQESVTEQDSKDSTYSLSSTLTLSKADYEKHKVYACEVTHQGLSSPVTKSFNRGEC | 5.7 | 0.11 | 4 | 5.1 | 0.1 | 6.5 | 4 | 0.7 | 0.8
4 | M103205H795-MY207 / M103202L889-SK1 (antibody, human IgG1, kappa, Fc variant of M103205H795-SG1, expressed with M103202L889-SK1 as light chain) heavy: not shown light: DIVMTQSPATLSLSPGERATLSCTSSQSVYHANWLSWFQQKPGQPPKLLIYWASTLAYGVPSRFSGSGSGTDFTLTISSLQPEDAATYYCAGGYGGGRYAFGQGTKVEIKRTVAAPSVFIFPPSDEQLKSGTASVVCLLNNFYPREAKVQWKVDNALQSGNSQESVTEQDSKDSTYSLSSTLTLSKADYEKHKVYACEVTHQGLSSPVTKSFNRGEC | 2.5 | 0.08 | 2.1 | 2.9 | 0.1 | 8.6 | 2.2 | 0.5 | 0.4
